{
  "source": "the supplement of paper PMC7125110",
  "parents": {"B1": {"name": "glmS ribozyme (parent)", "chain": "AUAAAAGCGCCAGAACUACAGAAAUGUAGUUGACGAGGAGGAGGUUUAUCGAAUUUUCGGCGGAUGCCUCCAAA"}},
  "note": "± gives the standard error. Fewer inactive variants are shown than the library holds.",
  "data": [
    {"variants_of": "B1", "test": "self-cleavage kobs at 2500 uM GlcN6P; higher = faster cleavage; RNA array", "settings": "with glucosamine-6-phosphate", "method_in_brief": "(§1)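 A hybridised Cy3 probe tracked barcoded ribozyme variants, transcribed in situ by E. coli RNA polymerase on sequenced MiSeq chips, at 37 °C. The variants received 40 μM to 10 mM glucosamine-6-phosphate in HEPES/KCl/Mg(OAc)2 buffer. kobs came from decay fits and kcat and KM from weighted Michaelis–Menten fits.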", "units": {"self-cleavage kobs at 2500 uM GlcN6P": "s⁻¹"}, "values": [
      {"variant": "U46G C58U C68G", "self-cleavage kobs at 2500 uM GlcN6P": "0.000337 ± 0.00012"},
      {"variant": "C16U G29U C70G C71A", "self-cleavage kobs at 2500 uM GlcN6P": "7.2e-05 ± 1.7e-05"},
      {"variant": "G29U G40A U65A", "self-cleavage kobs at 2500 uM GlcN6P": "3.42e-05 ± 1.6e-05"},
      {"variant": "G29U C50U C61U", "self-cleavage kobs at 2500 uM GlcN6P": "< 1e-05"},
      {"variant": "A12U C16G U30C", "self-cleavage kobs at 2500 uM GlcN6P": "0.000813 ± 0.00031"},
      {"variant": "A15C A36C A48U", "self-cleavage kobs at 2500 uM GlcN6P": "< 1e-05"},
      {"variant": "C68U U69C C70U", "self-cleavage kobs at 2500 uM GlcN6P": "3.99e-05 ± 1.4e-05"},
      {"variant": "G37U U49G U57C", "self-cleavage kobs at 2500 uM GlcN6P": "< 1e-05"},
      {"variant": "A12U G37A C70G", "self-cleavage kobs at 2500 uM GlcN6P": "0.00013 ± 3.4e-05"},
      {"variant": "G7U U31C G43A", "self-cleavage kobs at 2500 uM GlcN6P": "< 1e-05"},
      {"variant": "C10A G66A C68A", "self-cleavage kobs at 2500 uM GlcN6P": "5.96e-05 ± 2.6e-05"},
      {"variant": "G7U G41C C50U", "self-cleavage kobs at 2500 uM GlcN6P": "< 1e-05"},
      {"variant": "G29U U55C G60C C68G", "self-cleavage kobs at 2500 uM GlcN6P": "< 1e-05"},
      {"variant": "G9C C16A C34A G44C A64G", "self-cleavage kobs at 2500 uM GlcN6P": "< 1e-05"},
      {"variant": "G32A C34G C71U", "self-cleavage kobs at 2500 uM GlcN6P": "< 1e-05"},
      {"variant": "A6G G13C U65A U69C", "self-cleavage kobs at 2500 uM GlcN6P": "< 1e-05"},
      {"variant": "C16A G37U C61G U69G", "self-cleavage kobs at 2500 uM GlcN6P": "5.77e-05 ± 1.7e-05"},
      {"variant": "G9A U54G G62A", "self-cleavage kobs at 2500 uM GlcN6P": "< 1e-05"},
      {"variant": "C8U C11U U30A A52C U69G", "self-cleavage kobs at 2500 uM GlcN6P": "< 1e-05"},
      {"variant": "C10G A42C U65G", "self-cleavage kobs at 2500 uM GlcN6P": "< 1e-05"},
      {"variant": "G9U G29U U31A U46A", "self-cleavage kobs at 2500 uM GlcN6P": "< 1e-05"},
      {"variant": "A14C C16A G63A", "self-cleavage kobs at 2500 uM GlcN6P": "< 1e-05"},
      {"variant": "A6C G40C C61U", "self-cleavage kobs at 2500 uM GlcN6P": "< 1e-05"},
      {"variant": "A12C A15U G62A", "self-cleavage kobs at 2500 uM GlcN6P": "< 1e-05"},
      {"variant": "A42G A52G C67A", "self-cleavage kobs at 2500 uM GlcN6P": "0.000326 ± 8.1e-05"},
      {"variant": "U46A A53U C68U", "self-cleavage kobs at 2500 uM GlcN6P": "0.000125 ± 6.3e-05"},
      {"variant": "C8G A36C A53C", "self-cleavage kobs at 2500 uM GlcN6P": "< 1e-05"},
      {"variant": "G32C A33C U49G", "self-cleavage kobs at 2500 uM GlcN6P": "< 1e-05"},
      {"variant": "C11A U56A C67G", "self-cleavage kobs at 2500 uM GlcN6P": "5.5e-05 ± 1.8e-05"},
      {"variant": "A14U A33G G40U U56A", "self-cleavage kobs at 2500 uM GlcN6P": "< 1e-05"},
      {"variant": "A12C G38C C71U", "self-cleavage kobs at 2500 uM GlcN6P": "< 1e-05"},
      {"variant": "C8A A33C A42G U65G", "self-cleavage kobs at 2500 uM GlcN6P": "< 1e-05"},
      {"variant": "A39G G41U U69A", "self-cleavage kobs at 2500 uM GlcN6P": "5.05e-05 ± 2.2e-05"},
      {"variant": "A42U C58U U65G", "self-cleavage kobs at 2500 uM GlcN6P": "< 1e-05"},
      {"variant": "C50U A64U C71U", "self-cleavage kobs at 2500 uM GlcN6P": "< 1e-05"},
      {"variant": "A39C A42G A52U", "self-cleavage kobs at 2500 uM GlcN6P": "6.4e-05 ± 1.5e-05"},
      {"variant": "C8A A12U G44U", "self-cleavage kobs at 2500 uM GlcN6P": "< 1e-05"},
      {"variant": "A15U G51U U65A", "self-cleavage kobs at 2500 uM GlcN6P": "< 1e-05"},
      {"variant": "C8A G13C U46G U56A U69C C70G", "self-cleavage kobs at 2500 uM GlcN6P": "< 1e-05"},
      {"variant": "G9C G40U C67U", "self-cleavage kobs at 2500 uM GlcN6P": "< 1e-05"},
      {"variant": "C10U A14C A15U G41A", "self-cleavage kobs at 2500 uM GlcN6P": "< 1e-05"},
      {"variant": "C11U C16U A53C C68A C70G", "self-cleavage kobs at 2500 uM GlcN6P": "< 1e-05"},
      {"variant": "G13U C16U A39U A53G", "self-cleavage kobs at 2500 uM GlcN6P": "0.000359 ± 0.00012"},
      {"variant": "G32U U57A C61A", "self-cleavage kobs at 2500 uM GlcN6P": "< 1e-05"},
      {"variant": "G9U C50U C68U", "self-cleavage kobs at 2500 uM GlcN6P": "< 1e-05"},
      {"variant": "C11U A15G G43A C67G", "self-cleavage kobs at 2500 uM GlcN6P": "0.000114 ± 3.9e-05"},
      {"variant": "G29U G44U G59U C67A", "self-cleavage kobs at 2500 uM GlcN6P": "< 1e-05"},
      {"variant": "C10U G13U A52U", "self-cleavage kobs at 2500 uM GlcN6P": "< 1e-05"},
      {"variant": "A14U G40U G60A C70G C71U", "self-cleavage kobs at 2500 uM GlcN6P": "< 1e-05"},
      {"variant": "C8A G40C C67A", "self-cleavage kobs at 2500 uM GlcN6P": "< 1e-05"},
      {"variant": "G7A C8A U56G", "self-cleavage kobs at 2500 uM GlcN6P": "< 1e-05"},
      {"variant": "G7C G35C A48C C58U", "self-cleavage kobs at 2500 uM GlcN6P": "< 1e-05"},
      {"variant": "C8A U46G C61A U65C", "self-cleavage kobs at 2500 uM GlcN6P": "< 1e-05"},
      {"variant": "A12C G29A U45G U46C", "self-cleavage kobs at 2500 uM GlcN6P": "0.000151 ± 5.3e-05"},
      {"variant": "G29A U30C A48U C58U", "self-cleavage kobs at 2500 uM GlcN6P": "< 1e-05"},
      {"variant": "C10U A33G A39G G41C C67U", "self-cleavage kobs at 2500 uM GlcN6P": "< 1e-05"},
      {"variant": "C11U A15U G41C", "self-cleavage kobs at 2500 uM GlcN6P": "< 1e-05"},
      {"variant": "C8U G9A U45A U69C", "self-cleavage kobs at 2500 uM GlcN6P": "< 1e-05"},
      {"variant": "C10A C16U A64U", "self-cleavage kobs at 2500 uM GlcN6P": "< 1e-05"},
      {"variant": "G41C G44U U54A C68A C71A", "self-cleavage kobs at 2500 uM GlcN6P": "< 1e-05"},
      {"variant": "G32C U47A A64G C68A", "self-cleavage kobs at 2500 uM GlcN6P": "< 1e-05"},
      {"variant": "C11U C16G C70G", "self-cleavage kobs at 2500 uM GlcN6P": "5.75e-05 ± 2.7e-05"},
      {"variant": "G37U A42C U47A A48U U56A", "self-cleavage kobs at 2500 uM GlcN6P": "< 1e-05"},
      {"variant": "G44U U56C U57A", "self-cleavage kobs at 2500 uM GlcN6P": "< 1e-05"},
      {"variant": "G44U U45A U47A", "self-cleavage kobs at 2500 uM GlcN6P": "0.000474 ± 0.0002"},
      {"variant": "C11U A14G U49C", "self-cleavage kobs at 2500 uM GlcN6P": "< 1e-05"},
      {"variant": "G32U A39U C50A", "self-cleavage kobs at 2500 uM GlcN6P": "< 1e-05"},
      {"variant": "U31C A42U U56C G66C", "self-cleavage kobs at 2500 uM GlcN6P": "< 1e-05"},
      {"variant": "A12C U45A C67G", "self-cleavage kobs at 2500 uM GlcN6P": "0.000527 ± 0.00016"},
      {"variant": "C10G G44U C71A", "self-cleavage kobs at 2500 uM GlcN6P": "< 1e-05"},
      {"variant": "A33U A39C G62C", "self-cleavage kobs at 2500 uM GlcN6P": "< 1e-05"},
      {"variant": "A6U C67G C71A", "self-cleavage kobs at 2500 uM GlcN6P": "< 1e-05"},
      {"variant": "C10U G51U G60U", "self-cleavage kobs at 2500 uM GlcN6P": "< 1e-05"},
      {"variant": "U31G A48U A52C", "self-cleavage kobs at 2500 uM GlcN6P": "< 1e-05"},
      {"variant": "C11U C34G U54C", "self-cleavage kobs at 2500 uM GlcN6P": "< 1e-05"},
      {"variant": "U31C G41C U45A A52G C61G", "self-cleavage kobs at 2500 uM GlcN6P": "< 1e-05"},
      {"variant": "C34U G63U A64G", "self-cleavage kobs at 2500 uM GlcN6P": "0.000111 ± 3.8e-05"},
      {"variant": "U49G C61U C67G", "self-cleavage kobs at 2500 uM GlcN6P": "< 1e-05"},
      {"variant": "C11A A12U G32U C50U U56A C58A", "self-cleavage kobs at 2500 uM GlcN6P": "< 1e-05"},
      {"variant": "A39G G44U A53C", "self-cleavage kobs at 2500 uM GlcN6P": "0.000157 ± 4.5e-05"},
      {"variant": "C11G G35A C61A", "self-cleavage kobs at 2500 uM GlcN6P": "< 1e-05"},
      {"variant": "C10U C11A G41A U55C C58G", "self-cleavage kobs at 2500 uM GlcN6P": "< 1e-05"}
    ]},
    {"variants_of": "B1", "test": "self-cleavage kobs at 10000 uM GlcN6P; higher = faster cleavage; RNA array", "settings": "with glucosamine-6-phosphate", "method_in_brief": "as §1", "units": {"self-cleavage kobs at 10000 uM GlcN6P": "s⁻¹"}, "values": [
      {"variant": "A12U G37A C70G", "self-cleavage kobs at 10000 uM GlcN6P": "9.11e-05 ± 2.1e-05"},
      {"variant": "C8G A36C A53C", "self-cleavage kobs at 10000 uM GlcN6P": "< 1e-05"},
      {"variant": "C11U C16U A53C C68A C70G", "self-cleavage kobs at 10000 uM GlcN6P": "< 1e-05"},
      {"variant": "C11U A15G G43A C67G", "self-cleavage kobs at 10000 uM GlcN6P": "0.000119 ± 3.5e-05"},
      {"variant": "C10U A33G A39G G41C C67U", "self-cleavage kobs at 10000 uM GlcN6P": "< 1e-05"},
      {"variant": "C11U C16G C70G", "self-cleavage kobs at 10000 uM GlcN6P": "0.000142 ± 4.4e-05"},
      {"variant": "C10U G51U G60U", "self-cleavage kobs at 10000 uM GlcN6P": "< 1e-05"}
    ]}
  ]
}
